Measured values published in US20160003839A1 (NATIONAL UNIVERSITY OF IRELAND GALWAY, published 2016).

B1: scFv-G12 (scFv)
scFv: QAALTQPSSVSANPGETVKITCSGGSYHYGWYQQKSPGSAPVTVIYSNNQRPSGIPSRFSGSTSDSTGTLTITGVQADDEAVYFCGSYDSSNTYAGIFGAGTTLTVLGQSSRSSSGGGSSGGGGSAVTLDESGGGFQTPGGALSLVCKASGFTFSSYSMQWVRQAPGKGLEFVAGIGNSDRYTYFGPAVKGRATISRDNGQSTLRLQLNNLRAEDTATYFCARSGDSGNGCTHPWCSADNINAWGHGTEVIVSSTSGQAGQ
notes: Chicken scFv (VL-linker-VH), expressed soluble in E. coli; It recognises the Gal-α-(1→3)-Gal glycan
B2: scFv-A11 (scFv)
scFv: QAALTQPSSVSANPGETVKITCSGGGSYGGSYYYGWYQQKSPGSAPVTVIYSNDNRPSDIPSRFSGSTSGSTSTLTITGVQVDDEAVYYCGTYDSSYVGIFGAGTALTVLGQSSRSSGGGSSGGGGSAVTLDESGGGLQTPGGGLSLVCKASGFTFSSYSMQWVRQTPGKGLEFVAGIGYSDSYTYFGPAVKGRATISRDNGQNTVRLQLNNLRAEDTATYYCARSADTIYGCTHPWCSADNIDAWGHGTEVIVSSTSGQAGQ
notes: as for B1
B3: scFv-A4 (scFv)
scFv: QAALTQPSSVSTNPGGTVKITCSGGNGNYGWYQQKSPGSAPVTVIYSNNKRPSDIPSRFSGSKSGSTATLTITGVQVDDEAVYFCGAYDNTYVGVFGAGTTLTVLGQSSRSSSGGGSSGGGGSAVTLDESGGGLQTPGGGLSLVCKASGFTFSSYSMQWVRQTPGKGLEFVAGIGYSDSYTYFGPAVKGRATISRDNGQNTVRLQLNNLRAEDTATYYCARSADTIYGCTHPWCSADNIDAWGHGTEVIVSSTSGQAGQ
notes: Chicken scFv (VL-linker-VH) from a pComb3 phage library, expressed soluble in E. coli; It recognises the Gal-α-(1→3)-Gal glycan, not a protein surface

biological target: T1, Gal-α-(1→3)-Gal target of the SPR experiment (ligand on the chip not stated); assay: SPR (BIAcore), Kd from kon and koff; ligand on the chip not stated
T1 construct: also called target glycan
Procedure: Dissociation constants (Kd) for the scFvs were calculated from the measured association (kon) and dissociation (koff) rate constants by using surface plasmon resonance (SPR) BIAcore instrumentation and software (GE).

First: B1
Second: B2
The Kd of the first is 2.2-fold higher: 0.018 µM for the first, 0.00804 µM for the second. The second binds more tightly here.

B3 gave a Kd of 0.0573 µM.
